Xmid (log10) data for ten molecules are collected here from patent US20240059759A1.

Experiment [1] has as its target SARS-CoV-2 Spike RBD-His Tag, Sino Biological (SARS-CoV-2).
Experiment [2] has the same target. This is another data set of the same source.
For experiment [3] the target is unchanged. This is another data set of the same source.
Experiment [4] shares this target. This is another data set of the same source.
For experiment [5] the target is unchanged. The source holds these as a separate data set.
The target in experiment [6] is CoV-2 (SARS-CoV-2).
Experiment [7] has as its target CoV-2 (SARS-CoV-2). The source holds these as a separate data set.
Experiment [8] deals with CoV-2 (SARS-CoV-2). The source holds these as a separate data set.
The target in experiment [9] is CoV-2 (SARS-CoV-2). This is another data set of the same source.
For experiment [10], the target named is CoV-2 (SARS-CoV-2). This is another data set of the same source.
Experiment [11] deals with SARS-CoV-2 Spike RBD-His Tag, Sino Biological (SARS-CoV-2). The source holds these as a separate data set.
Experiment [12] shares this target. The source holds these as a separate data set.
For experiment [13] the target is unchanged. This is another data set of the same source.
Experiment [14] concerns the target CoV-2 (SARS-CoV-2). This is another data set of the same source.
The target in experiment [15] is CoV-2 (SARS-CoV-2). This is another data set of the same source.
In experiment [16] the target is CoV-2 (SARS-CoV-2). The source holds these as a separate data set.

Positions count from the first letter of the chain named. Read-outs that look alike come from different tables or passages of the source.

B1: vhh_tstrep_sars2_pjl1_L_74 (VHH)
VHH: QVQLQESGGGLVQAGGSLRLSCAASGRTFSEYAMGWFRQAPGKEREFVATISWSGGATYQTDSVKGRFTISRDNAKNTVYLQMNSLKPDDTAVYYCAAAGLGTVVSEWDYDYDYWGQGTQVTVSS
Consider B1, for which the xmid (log10) in experiment [1] was -0.413; in experiment [2], -0.787.

B2: vhh_tstrep_sars2_pjl1_L_150 (VHH)
VHH: B1 VHH with T58G, Q60H
Regarding B2, the values for the xmid (log10) in experiment [3] and in experiment [4] were 0.171 and 0.879, respectively.

B3: vhh_tstrep_sars2_pjl1_L_145 (VHH)
VHH: B1 VHH with W53L, Q60H
Turning to B3, the xmid (log10) in experiment [3] amounted to 0.668; in experiment [5], 0.562.

B4: vhh_tstrep_sars2_pjl1_L_4 (VHH)
VHH: B1 VHH with A57S, Q60Y, A99G
For B4, the xmid (log10) with CoV-2 (SARS-CoV-2) [6] is -0.0058; with CoV-2 (SARS-CoV-2) [7], 0.673; in the experiment with CoV-2 (SARS-CoV-2) [8], 0.752.

B5: vhh_tstrep_sars2_pjl1_L_27 (VHH)
VHH: B1 VHH with A57S, Q60Y, G102A
As for B5, the results for the xmid (log10) with CoV-2 (SARS-CoV-2) [9], with CoV-2 (SARS-CoV-2) [7] and in the experiment with CoV-2 (SARS-CoV-2) [10] were 0.178, 0.407 and 0.577, respectively.

B6: vhh_tstrep_sars2_pjl1_L_99 (VHH)
VHH: B1 VHH with Q60Y, D109A, Y114A
Consider B6, for which the xmid (log10) is -0.384 in [11] and -0.202 in experiment [12].

B7: vhh_tstrep_sars2_pjl1_L_144 (VHH)
VHH: B1 VHH with I51S, Q60H
On to B7, for which the xmid (log10) in experiment [13] is 0.491; in experiment [4] it was -0.0515.

B8: vhh_tstrep_sars2_pjl1_L_47 (VHH)
VHH: B1 VHH with A57S, Q60Y, Y112A
Regarding B8, the xmid (log10) was -0.708 with CoV-2 (SARS-CoV-2) [9], 1.45 with CoV-2 (SARS-CoV-2) [8] and 0.716 in the experiment with CoV-2 (SARS-CoV-2) [14].

B9: vhh_tstrep_sars2_pjl1_L_35 (VHH)
VHH: B1 VHH with A57S, Q60Y, A98G
B9: the xmid (log10) with CoV-2 (SARS-CoV-2) [15] was -0.501; with CoV-2 (SARS-CoV-2) [16] it was 0.231; in the experiment with CoV-2 (SARS-CoV-2) [14], 0.355.

B10: vhh_tstrep_sars2_pjl1_L_79 (VHH)
VHH: B1 VHH with Q60T
For the molecule B10, the xmid (log10) in experiment [1] was -1.01; in experiment [2], -1.02.
